Measured values reported in paper PMC4091826 (Molecular Biology of the Cell, 2014).
“Also recorded” adds a separate entry of the source.

How the values were obtained:
[1] = test system: Ssc1; assay: Stimulation of ATPase activity by P5 peptide, Ssc1; type: biochemical, S. cerevisiae; conditions: 100-fold molar excess P5, single-turnover
[2] = test system: Ssc1; assay: Single-turnover basal ATPase assay, Ssc1; type: biochemical, S. cerevisiae; conditions: 25°C; for fold increase in basal ATPase activity: buffer A, versus wild type
[3] = test system: Ssc1; assay: ATP-induced substrate release by fluorescence anisotropy, Ssc1; type: biochemical, S. cerevisiae; conditions: 2.5 mM ATP, 5 μM Ssc1[F-P5]; for ATP-induced substrate release, in words: 5 min
[4] = test system: yeast cells; assay: Growth phenotype; type: cell-based, S. cerevisiae; conditions: minimal medium or 5-FOA medium, serial dilutions
[5] = test system: Ssc1; assay: Tryptophan fluorescence quenching upon ATP binding, Ssc1; type: biochemical, S. cerevisiae; conditions: 2.5 μM protein, 1000-fold excess ATP, wild type set at 100%
[6] = test system: Tim44; assay: Coimmunoprecipitation of Ssc1 with Tim44; type: binding, S. cerevisiae; conditions: mitochondrial lysates, anti-Ssc1, presence or absence of 1 mM ATP; Figure 6A
[7] = test system: Ssc1; assay: Limited proteolytic cleavage by trypsin; type: biochemical, S. cerevisiae; conditions: 1:100 (wt/wt) trypsin, 25°C, SDS-PAGE

B1: S209 (protein)
chain: QSTKVQGSVIGIDLGTTNSAVAIMEGKVPKIIENAEGSRTTPSVVAFTKEGERLVGIPAKRQAVVNPENTLFATKRLIGRRFEDAEVQRDIKQVPYKIVKHSNGDAWVEARGQTYSPAQIGGFVLNKMKETAEAYLGKPVKNAVVTVPAYFNDSQRQATKDAGQIVGLNVLRVVNEPTAAALAYGLEKSDSKVVAVFDLGGGTFDISILDIDNGVFEVKSTNGDTHLGGEDFDIYLLREIVSRFKTETGIDLENDRMAIQRIREAAEKAKIELSSTVSTEINLPFITADASGPKHINMKFSRAQFETLTAPLVKRTVDPVKKALKDAGLSTSDISEVLLVGGMSRMPKVVETVKSLFGKDPSKAVNPDEAVAIGAAVQGAVLSGEVTDVLLLDVTPLSLGIETLGGVFTRLIPRNTTIPTKKSQIFSTAAAGQTSVEIRVFQGARELVRDNKLIGNFTLAGIPPAPRGVPQIEVTFDIDADGIINVSARDKATNKDSSITVAGSSGLSENEIEQMVNDAEKFKSQDEARKQAIETANKADQLANDTENSLKEFEGKVDKAEAQKVRDQITSLKELVARVQGGEEVNAEELKTKTEELQTSSMKLFEQLYKNDSNNNNNNNGNNAESGETKQ
modifications: left off: His6, end not stated, state not stated
stimulation of ATPase activity by P5, in words [1]: could stimulate ATPase activity similar to wild-type levels; also recorded: augment peptide-mediated ATPase stimulation
basal ATPase activity, in words [2]: able to suppress the elevated basal activity of the mutant

B2: E467A-D411R (protein)
chain: QSTKVQGSVIGIDLGTTNSAVAIMEGKVPKIIENAEGSRTTPSVVAFTKEGERLVGIPAKRQAVVNPENTLFATKRLIGRRFEDAEVQRDIKQVPYKIVKHSNGDAWVEARGQTYSPAQIGGFVLNKMKETAEAYLGKPVKNAVVTVPAYFNDSQRQATKDAGQIVGLNVLRVVNEPTAAALAYGLEKSDSKVVAVFDLGGGTFDISILDIDNGVFEVKSTNGDTHLGGEDFDIYLLREIVSRFKTETGIDLENDRMAIQRIREAAEKAKIELSSTVSTEINLPFITADASGPKHINMKFSRAQFETLTAPLVKRTVDPVKKALKDAGLSTSDISEVLLVGGMSRMPKVVETVKSLFGKDPSKAVNPDEAVAIGAAVQGAVLSGEVTRVLLLDVTPLSLGIETLGGVFTRLIPRNTTIPTKKSQIFSTAAAGQTSVEIRVFQGARELVRDNKLIGNFTLAGIPPAPKGVPQIEVTFDIDADGIINVSARDKATNKDSSITVAGSSGLSENEIEQMVNDAEKFKSQDEARKQAIETANKADQLANDTENSLKEFEGKVDKAEAQKVRDQITSLKELVARVQGGEEVNAEELKTKTEELQTSSMKLFEQLYKNDSNNNNNNNGNNAESGETKQ
modifications: left off: His6, end not stated, state not stated
ATP-induced substrate release, in words [3]: markedly compromised in ATP-dependent conformational changes required for release of bound substrate
growth phenotype, in words [4]: lethal, as demonstrated by lack of growth on 5-FOA
stimulation of ATPase activity by P5, in words [1]: severely impaired stimulation by substrate
tryptophan fluorescence quenching upon ATP binding, in words [5]: markedly compromised

B3: D416R (protein)
chain: QSTKVQGSVIGIDLGTTNSAVAIMEGKVPKIIENAEGSRTTPSVVAFTKEGERLVGIPAKRQAVVNPENTLFATKRLIGRRFEDAEVQRDIKQVPYKIVKHSNGDAWVEARGQTYSPAQIGGFVLNKMKETAEAYLGKPVKNAVVTVPAYFNDSQRQATKDAGQIVGLNVLRVVNEPTAAALAYGLEKSDSKVVAVFDLGGGTFDISILDIDNGVFEVKSTNGDTHLGGEDFDIYLLREIVSRFKTETGIDLENDRMAIQRIREAAEKAKIELSSTVSTEINLPFITADASGPKHINMKFSRAQFETLTAPLVKRTVDPVKKALKDAGLSTSDISEVLLVGGMSRMPKVVETVKSLFGKDPSKAVNPDEAVAIGAAVQGAVLSGEVTDVLLLRVTPLSLGIETLGGVFTRLIPRNTTIPTKKSQIFSTAAAGQTSVEIRVFQGERELVRDNKLIGNFTLAGIPPAPKGVPQIEVTFDIDADGIINVSARDKATNKDSSITVAGSSGLSENEIEQMVNDAEKFKSQDEARKQAIETANKADQLANDTENSLKEFEGKVDKAEAQKVRDQITSLKELVARVQGGEEVNAEELKTKTEELQTSSMKLFEQLYKNDSNNNNNNNGNNAESGETKQ
modifications: left off: His6, end not stated, state not stated
substrate (peptide) release upon ATP addition ([3]; anisotropy decrease up to 5 min): < 10%
growth phenotype, in words [4]: severe growth defect, as evidenced by its inviability on 5-FOA medium; also recorded: inviable
stimulation of ATPase activity by P5, in words [1]: stimulated fivefold less by P5 as compared with the wild-type protein
fold increase in basal ATPase activity [2]: 4.5 fold
tryptophan fluorescence quenching upon ATP binding, in words [5]: significantly lowered quenching of tryptophan fluorescence

B4: WT Ssc1: Wild type Ssc1 (His6), yeast mtHsp70 (protein)
chain: QSTKVQGSVIGIDLGTTNSAVAIMEGKVPKIIENAEGSRTTPSVVAFTKEGERLVGIPAKRQAVVNPENTLFATKRLIGRRFEDAEVQRDIKQVPYKIVKHSNGDAWVEARGQTYSPAQIGGFVLNKMKETAEAYLGKPVKNAVVTVPAYFNDSQRQATKDAGQIVGLNVLRVVNEPTAAALAYGLEKSDSKVVAVFDLGGGTFDISILDIDNGVFEVKSTNGDTHLGGEDFDIYLLREIVSRFKTETGIDLENDRMAIQRIREAAEKAKIELSSTVSTEINLPFITADASGPKHINMKFSRAQFETLTAPLVKRTVDPVKKALKDAGLSTSDISEVLLVGGMSRMPKVVETVKSLFGKDPSKAVNPDEAVAIGAAVQGAVLSGEVTDVLLLDVTPLSLGIETLGGVFTRLIPRNTTIPTKKSQIFSTAAAGQTSVEIRVFQGERELVRDNKLIGNFTLAGIPPAPKGVPQIEVTFDIDADGIINVSARDKATNKDSSITVAGSSGLSENEIEQMVNDAEKFKSQDEARKQAIETANKADQLANDTENSLKEFEGKVDKAEAQKVRDQITSLKELVARVQGGEEVNAEELKTKTEELQTSSMKLFEQLYKNDSNNNNNNNGNNAESGETKQ
modifications: left off: His6, end not stated, state not stated
interaction with Tim44, in words [6]: robust interaction with Tim44 in the absence of ATP, and this binding was sensitive to the presence of ATP
trypsin cleavage pattern, in words [7]: limited proteolysis pattern, leading to formation of stable 30-kDa fragments

B5: D411R (protein)
chain: QSTKVQGSVIGIDLGTTNSAVAIMEGKVPKIIENAEGSRTTPSVVAFTKEGERLVGIPAKRQAVVNPENTLFATKRLIGRRFEDAEVQRDIKQVPYKIVKHSNGDAWVEARGQTYSPAQIGGFVLNKMKETAEAYLGKPVKNAVVTVPAYFNDSQRQATKDAGQIVGLNVLRVVNEPTAAALAYGLEKSDSKVVAVFDLGGGTFDISILDIDNGVFEVKSTNGDTHLGGEDFDIYLLREIVSRFKTETGIDLENDRMAIQRIREAAEKAKIELSSTVSTEINLPFITADASGPKHINMKFSRAQFETLTAPLVKRTVDPVKKALKDAGLSTSDISEVLLVGGMSRMPKVVETVKSLFGKDPSKAVNPDEAVAIGAAVQGAVLSGEVTRVLLLDVTPLSLGIETLGGVFTRLIPRNTTIPTKKSQIFSTAAAGQTSVEIRVFQGERELVRDNKLIGNFTLAGIPPAPKGVPQIEVTFDIDADGIINVSARDKATNKDSSITVAGSSGLSENEIEQMVNDAEKFKSQDEARKQAIETANKADQLANDTENSLKEFEGKVDKAEAQKVRDQITSLKELVARVQGGEEVNAEELKTKTEELQTSSMKLFEQLYKNDSNNNNNNNGNNAESGETKQ
modifications: left off: His6, end not stated, state not stated
ATP-induced substrate release, in words [3]: modest reductions
growth phenotype, in words [4]: did not result in a growth defect; also recorded: completely viable
stimulation of ATPase activity by P5, in words [1]: modest reductions in stimulation of ATPase activity by substrate
fold increase in basal ATPase activity [2]: twofold increase
tryptophan fluorescence quenching upon ATP binding, in words [5]: modest reductions
